Where a chain is given by its changes, count along the chain named. Where two headings read alike, the source gives them in different places. Each block holds one binder with its values, some of them ahead of it.
Tests used:
IFNAR-1 on human cells [1] = target: T1, IFNAR-1 on human cells (human, UniProt P17181 28-557); test: cell-based or functional assay
T1 sequence (looked up): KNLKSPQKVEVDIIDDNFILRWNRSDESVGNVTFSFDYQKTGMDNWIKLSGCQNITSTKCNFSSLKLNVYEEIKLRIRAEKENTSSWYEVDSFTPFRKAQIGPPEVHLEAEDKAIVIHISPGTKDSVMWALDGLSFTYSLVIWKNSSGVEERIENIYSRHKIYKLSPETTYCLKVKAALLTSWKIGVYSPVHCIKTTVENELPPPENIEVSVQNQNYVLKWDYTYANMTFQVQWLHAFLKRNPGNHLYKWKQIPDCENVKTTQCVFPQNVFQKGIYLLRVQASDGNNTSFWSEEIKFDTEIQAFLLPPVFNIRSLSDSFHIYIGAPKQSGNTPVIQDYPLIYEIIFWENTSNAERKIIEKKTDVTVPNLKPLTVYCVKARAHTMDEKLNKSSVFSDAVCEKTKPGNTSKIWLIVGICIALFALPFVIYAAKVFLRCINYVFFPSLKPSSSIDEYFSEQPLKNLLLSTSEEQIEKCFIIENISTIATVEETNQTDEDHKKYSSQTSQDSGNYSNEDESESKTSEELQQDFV

[2] = target: T2, purified recombinant IFNAR-1 extracellular fragment (human, UniProt P17181 28-436); test: Biacore, IFNAR-1 extracellular fragment coupled to CM5 chip, antibody 1.75-80 nM
T2 construct: extracellular domain; also called soluble IFNAR-1; soluble IFNAR
T2 sequence (looked up): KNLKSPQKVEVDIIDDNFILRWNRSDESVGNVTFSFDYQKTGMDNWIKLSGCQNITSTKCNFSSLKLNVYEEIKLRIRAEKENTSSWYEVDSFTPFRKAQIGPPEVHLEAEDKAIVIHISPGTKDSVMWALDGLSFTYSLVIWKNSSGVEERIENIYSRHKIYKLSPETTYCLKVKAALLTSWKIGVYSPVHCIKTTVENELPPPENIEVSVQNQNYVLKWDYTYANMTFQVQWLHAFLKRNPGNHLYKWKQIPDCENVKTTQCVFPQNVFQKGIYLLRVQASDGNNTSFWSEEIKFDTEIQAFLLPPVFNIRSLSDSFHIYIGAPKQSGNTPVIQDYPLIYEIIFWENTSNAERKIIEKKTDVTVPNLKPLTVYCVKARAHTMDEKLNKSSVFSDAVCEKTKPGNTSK
Method: Antibodies from clones 64G12, H2K6, H2K1, H3K6, and H3K1 were assayed by Biacore analysis (Biacore AB, Uppsala, Sweden) to determine binding kinetics. Purified recombinant IFNAR-1 extracellular fragment was coupled to the CM5 sensor chip @ 600 RU. Binding was measured by adding antibody at concentrations from 1.75-80 nM at a flow rate of 20 ul/min. The binding curves were fit to a Langmuir binding model using BIAevaluation software (Biacore AB, Uppsala, Sweden).

[3] = target: T2, purified recombinant IFNAR-1 …; test: Receptor Binding (Biacore), purified recombinant receptor; Biacore, purified recombinant receptor (not BALL-1 cells)
IFNAR-1 on human cells [4] = target: T1, IFNAR-1 on human cells; test: Scatchard analysis, 125I-labelled antibody on BALL-1 cells
Method: BALL-1 cells, which express IFNAR-1 and IFNAR-2, were used to assess the binding of anti-IFNAR-1 humanized antibodies to cells by Scatchard analysis. The cells were grown in RPMI containing 10% FCS and washed twice with Hanks Balanced Salt Solution (HBSS) at 4 degrees C. […] Millipore plates (MAFB NOB) were coated with 1% nonfat dry milk in water and stored a 4° C. overnight. The plates were washed with binding buffer and 25 ul of unlabeled antibody (1000-fold excess) in TBS binding buffer was added to control wells in a Millipore 96 well glass fiber filter plate (non-specific binding NSB). Twenty-five microliters of buffer alone was added to the maximum binding control well (total binding). Twenty-five microliters of ¹²⁵I-anti-IFNAR-1 antibody and 25 ul of BALL-I cell suspension (4×10⁷ cells/ml) in TBS binding buffer were added. The plates were incubated for 2 hours at 200 RPM on a shaker at 4° C. At the completion of the incubation the Millipore plates were washed twice with 0.2 ml of cold TBS binding buffer containing a final concentration of 0.5 M NaCl. The filters were removed and counted in a gamma counter. Evaluation of equilibrium binding was performed using single site binding parameters with the Prism software (San Diego, Calif.).
Therefore in either a protein-based or cell-based assay, the binding affinity of the antibodies are in the low nM range.

IFNAR-1 on human cells [5] = target: T1, IFNAR-1 on human cells; test: cell-based or functional assay; remark: listed apart in the source
[6] = target: T2, purified recombinant IFNAR-1 …; test: Biacore, antibody captured on anti-human IgG Fc, soluble IFNAR 25-400 nM, flow cell 2-1 low density capture; Flow cell 2-1, low density capture
From the text: (§1) The binding affinity of M3K1 was compared to that of H3K1.

[7] = target: T2, purified recombinant IFNAR-1 …; test: Biacore, maximal association on IFNAR-1 relative to M3K1
From the text: (§2) Pools 4 and 11 were selected for further study and the individual antibodies in each pool were produced and expressed separately. The sequences of these individual antibodies were as shown in SEQ ID NO:12 of FIG. 1F and SEQ ID NO: 13 of FIG. 1G. The data is presented as maximal association relative to M3K1. […]

[8] = target: T2, purified recombinant IFNAR-1 …; test: Biacore, antibody captured on anti-human IgG Fc, soluble IFNAR-1 25-400 nM, flow cell 2-1 low density capture
From the text: as §1

[9] = target: T2, purified recombinant IFNAR-1 …; test: Biacore, maximal association on IFNAR-1 relative to M3K1; remark: listed apart in the source
From the text: as §2

[10] = target: T2, purified recombinant IFNAR-1 …; test: Biacore, antibody captured on anti-human IgG Fc, soluble IFNAR 25-400 nM, flow cell 2-1 low density capture
[11] = target: T2, purified recombinant IFNAR-1 …; test: Biacore, antibody captured on anti-human IgG Fc, soluble IFNAR-1 25-400 nM, flow cell 4-3 higher density capture
From the text: as §1

[12] = target: T2, purified recombinant IFNAR-1 …; test: Biacore, antibody on immobilized soluble IFNAR-1, maximal response, mean of four
Method: Additional combination variants heavy chain DI M3-B and light chain DI K1-C were also made. These combination variants were also tested for binding to IFNAR-1. […] Binding analysis was done by Biacore, with the antibody bound to immobilized soluble IFNAR-1. Maximal response was determined at two concentrations and values shown are mean of four determinations.

[13] = target: T2, purified recombinant IFNAR-1 …; test: Biacore, response on IFNAR-1 (flow cell 2) divided by response on anti-human IgG Fc (flow cell 4)
From the text: A series of antibodies were constructed with reduced numbers of potential T-cell epitopes. These included heavy chain variants M3-A and M3-B in which residues were changed in CDR regions and DI M3 in which framework residues were altered. De-immunized light chains were also constructed termed K1-C, K1-D, K1-E and DI K1. The antibodies were expressed and purified before analysis by Biacore. A Biacore chip was used with IFNAR-1 coated on Flow cell 2 at 690 RU and anti-human IgG Fc on flow cell 4 at 5000 RU. Binding of the antibody to IFNAR-1 relative to anti-human IgG Fc was determined by the ratio of response at flow cell 2 divided by flow cell 4 (Fc2/Fc4).

[14] = target: T2, purified recombinant IFNAR-1 …; test: Biacore, antibody captured on anti-human IgG Fc, soluble IFNAR 25-400 nM, flow cell 4-3 higher density capture
[15] = target: T2, purified recombinant IFNAR-1 …; test: Receptor Binding (Biacore), purified recombinant receptor
[16] = target: T2, purified recombinant IFNAR-1 …; test: Biacore, 200 nM antibody on immobilized soluble IFNAR-1

B2: H3K1 (IgG1) (antibody, V domains shown)
VH: EVQLVESGGGLVQPGGSLRLSCAFSGFTLSTSGMGIGWVRQAPGKGLEWVAHIWWDDDKYYNPSLKSRFTISRDTSKNTVYLQMNSLRAEDTAVYYCARNYYPYDAWFDYWGQGTLVTVS
VL: DIQMTQSPSSLSASVGDRVTITCSASSSINSNHLHWYQQKPGKAPKLLIYRTSILASGVPSRFSGSGSGTSFTLTISSLQPEDFATYYCQQGSNIPFTFGQGTKVEIKR
ISRE-RG reporter assay with IFNβ, potency against H3K1 (IgG4) (IFNAR-1 on human cells [1]): ~10 fold
Cell Proliferation (Daudi) IC50, cells cultured with interferon α2b (IFNAR-1 on human cells [5]): 3.9 nM
ISRE-RG Reporter (U937) IC50, interferon α2b (IFNAR-1 on human cells [5]): 2.7 nM

B4: M3K1 (antibody, V domains shown)
VH: B2 VH with V5L
VL: B2 VL
notes: also called heavy chain M3 with light chain K1
kon [6]: 5340 M⁻¹ s⁻¹
% activity relative to M3K1 [7]: 100%
Kd [8]: 7.09 nM
koff [8]: 3.79e-05 s⁻¹
kon [8]: 5340 M⁻¹ s⁻¹
% activity relative to M3K1 [9]: 100%
Kd [10]: 7.09 nM
koff [10]: 3.79e-05 s⁻¹
Kd [11]: 7.99 nM
koff [11]: 4.39e-05 s⁻¹
kon [11]: 5490 M⁻¹ s⁻¹
% response relative to H3K1 [12]: 97%
% activity relative to H3K1 [13]: 140%
Fc2/Fc4 [13]: 0.42
Kd [14]: 7.99 nM
koff [14]: 4.39e-05 s⁻¹
kon [14]: 5490 M⁻¹ s⁻¹

B5: H3K1 (IgG4) (antibody, V domains shown)
VH: B2 VH
VL: B2 VL
notes: also called H3K1 standard; humanized anti-IFNAR-1 mAb H3K1
Kd [15]: 3.4 nM
% activity relative to M3K1 [7]: 138%
Kd [8]: 6.26 nM
koff [8]: 5.04e-05 s⁻¹
kon [8]: 8060 M⁻¹ s⁻¹
% activity relative to M3K1 [9]: 115%
Kd [2]: 3.4 nM
Kd [11]: 6.43 nM
koff [11]: 4.81e-05 s⁻¹
kon [11]: 7480 M⁻¹ s⁻¹
% response relative to H3K1 [12]: 100%
Max Response relative to H3K1 (%) [16]: 100%
% activity relative to H3K1 [13]: 100%
Fc2/Fc4 [13]: 0.3
Kd (IFNAR-1 on human cells [4]): 4 nM
Cell Proliferation (Daudi) IC50, cells cultured with interferon α2b (IFNAR-1 on human cells [5]): 9.1 nM
ISRE-RG Reporter (U937) IC50, interferon α2b (IFNAR-1 on human cells [5]): 21.5 nM

More lines, now with the values ahead:

fold decrease in ISRE-RG reporter assay with IFNβ, potency against H3K1 (IgG1) (IFNAR-1 on human cells [1]): 3 fold
Kd [2]: 1.2 nM
Kd [3]: 1.2 nM
Kd (IFNAR-1 on human cells [4]): 3.9 nM
Cell Proliferation (Daudi) IC50, cells cultured with interferon α2b (IFNAR-1 on human cells [5]): 2.1 nM
ISRE-RG Reporter (U937) IC50, interferon α2b (IFNAR-1 on human cells [5]): 5.8 nM
B1: murine monoclonal antibody 64G12 (antibody, V domains shown)
VH: QVTLKESGPGILKPSQTLSLTCSFSGFSLSTSGMGIGWIRQPSGKGLEWLAHIWWDDDKYYNPSLKSQLTISRDTSTNQVFLNITSVDTVDTATYYCGRNYYPYDAWFDYWGQGTLVTVS
VL: EIVLTQSPTTMAASPGEKITITCSASSSINSNHLHWYQQKPGFSPKVLIYRTSILASGVPTRFSGSGSGTSYSLTIGTMEAEDVATYYCQQGSNIPFTFGSGTELEIKR
notes: Mouse IgG1, kappa light chain; also called 64G12 (mouse IgG1); murine anti-IFNAR-1 mAb 64G12

Kd [2]: 1.8 nM
B3: H3K6 (antibody, V domains shown)
VH: B2 VH
VL: EIVLTQSPDFQSVTPKEKVTITCSASSSINSNHLHWYQQKPGQSPKLLIYRTSILASGVPSRFSGSGSGTSFTLTINSLEAEDVATYYCQQGSNIPFTFGQGTKLEIKR
notes: Full-length antibody with human IgG constant regions; also called heavy chain H3 with light chain K6

— patent publication US20050208041A1 (Bristol-Myers Squibb, published 2005)
